{
  "source": "paper PMC11301264",
  "about": "“Bactericidal human monoclonal antibody 1B1 shows specificity for meningococcal factor H binding protein variant 2 and displaces human factor H” (FASEB BioAdvances, 2024)",
  "binders": {"B1": {"name": "human monoclonal antibody 1B1, full-length IgG1 (antibody, V domains shown)", "VH": "EVQLVESGGNLVQPGGSLRLSCAASGFTFSSYSMNWVRQAPGKGLEWVSYISSSSSTIYYADSVKGRFTISRDNAKNSLYLQMNSLRAEDTAVYYCARVAAGLKDWGQGTLVTVSS", "VL": "EIVLTQSPGTLSLSPGERATLSCRASQSISSSYLAWYQQKPGQAPRLLIFGASSRATGIPDRFSGSGSGTGFTLTISRLEPEDFAVYYCQHYDSSLPMTFGQGTKVEIK", "notes": "also called humAb 1B1; mAb 1B1; source: mammalian cells, recombinant, purified as described previously"}},
  "key": {"[1]": {"molecular_target": "fHbp variant 1.1 on live meningococci of MenB strain MC58 (Neisseria meningitidis (endogenous in strain MC58)) (UniProt Q9JXV4)"}, "[2]": {"molecular_target": "fHbp variant 3.28 on live meningococci of MenB strain M1239 (Neisseria meningitidis (endogenous in strain M1239)) (UniProt E6MV22)"}, "[3]": {"molecular_target": "T1, factor H binding protein (fHbp) variant 2.16, wild type, recombinant (Neisseria meningitidis serogroup B, …, strain)", "T1 construct": "Construct described in earlier work; vector pET-21b is named for the template plasmid; also called fHbp var 2; v2.16", "T1 chain": "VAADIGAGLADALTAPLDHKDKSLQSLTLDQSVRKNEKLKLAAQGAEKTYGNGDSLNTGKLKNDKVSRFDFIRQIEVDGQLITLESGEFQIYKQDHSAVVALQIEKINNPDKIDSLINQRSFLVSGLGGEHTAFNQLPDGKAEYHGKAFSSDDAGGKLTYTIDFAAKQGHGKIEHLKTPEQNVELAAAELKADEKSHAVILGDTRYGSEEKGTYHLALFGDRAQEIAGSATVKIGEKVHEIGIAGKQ", "experiment": "BLI; mAb (1B1 or 4B3, 10 mcg/mL) captured via Fc on Anti-Fc Human (AHC) biosensors; fHbp in solution, 150 to 1 nM; 30°C; 1 x PBS, 1% (w/v) BSA; 1:1 fit", "conditions": "both partners purified"}},
  "data": [
    {"binder": "B1", "values": [
      {"measurement": "hSBA (human complement) titer against MenB strain MC58", "setting": "[1]", "result": "< 4", "unit": "titer"},
      {"measurement": "rSBA (rabbit complement) titer against MenB strain MC58", "setting": "[1]", "result": "< 16", "unit": "titer"},
      {"measurement": "hSBA (human complement) titer against strain 5/99DD complemented with fHbp 3.28", "setting": "[2]", "result": "< 4", "unit": "titer"},
      {"measurement": "rSBA (rabbit complement) titer against strain 5/99DD complemented with fHbp 3.28", "setting": "[2]", "result": "< 16", "unit": "titer"},
      {"measurement": "Kd", "setting": "[3]", "result": 0.24, "unit": "nM"}
    ]}
  ]
}
